Results as given in publication PMC7824710.

How the values were obtained:
[1] = target: recombinant kinase domain of MKK7 (MKK7-KD), residues 101–405 (UniProt O14733); assay: other fluorescence titration; tryptophan fluorescence quenching at 334 nm; MKK7-KD at 1.25 µM in phosphate buffer pH 7.5, peptide 10 nM to 140 µM; fit log[inhibitor] vs. response, variable slope
[2] = target: recombinant kinase domain of MKK7 (MKK7-KD), residues 101–405 (UniProt O14733); assay: other fluorescence titration; FITC fluorescence quenching; FITC-labelled peptide at 10 nM titrated with soluble MKK7-KD 0-1000 nM; 96-well black plates, 200 µL, excitation 488 nm, emission at 517 nm; one-site total fit

Sequence of UniProt O14733 (O14733 101-405): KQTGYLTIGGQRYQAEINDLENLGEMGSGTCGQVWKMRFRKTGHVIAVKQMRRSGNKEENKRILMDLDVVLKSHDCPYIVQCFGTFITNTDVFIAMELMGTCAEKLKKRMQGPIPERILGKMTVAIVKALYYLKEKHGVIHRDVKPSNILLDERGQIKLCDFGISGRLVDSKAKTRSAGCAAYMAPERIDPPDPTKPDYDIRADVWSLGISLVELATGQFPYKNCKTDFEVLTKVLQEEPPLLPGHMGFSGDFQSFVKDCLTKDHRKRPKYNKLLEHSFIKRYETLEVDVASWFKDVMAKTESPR

Row | Substance | Kd [1] [nM] | Δ Fluorescence at 334 nm (at concentrations above 10 µM) [1] [units] | Kd [2] [nM]
1 | DTP3 (Ac-D-Tyr-D-Arg-D-Phe-NH2) (peptide) | 240 |  | 
2 | scramble (SCRB) peptide (Ac-D-Arg-D-Phe-D-Tyr-NH2) | 41000 | 4 | 
3 | FITC-βAla2-DTP3 (peptide) |  |  | 123
